Measurements: US9322000B2, “Methanol dehydrogenase enzymes from Bacillus” (Sinvent AS, priority 2012, dated 2016)
Entries after “also recorded” stand apart in the source; their conditions may differ. Like-named read-outs stand apart in the source and are kept apart here.

B1: Mdh2-MGA3: NAD-dependent methanol dehydrogenase encoded by chromosomal gene mdh2 of B. methanolicus MGA3, SEQ ID NO. 2 (protein)
chain: MTNTQSAFFMPSVNLFGAGSVNEVGTRLADLGVKKALLVTDAGLHGLGLSEKISSIIRAAGVEVSIFPKAEPNPTDKNVAEGLEAYNAENCDSIVTLGGGSSHDAGKAIALVAANGGKIHDYEGVDVSKEPMVPLIAINTTAGTGSELTKFTIITDTERKVKMAIVDKHVTPTLSINDPELMVGMPPSLTAATGLDALTHAIEAYVSTGATPITDALAIQAIKIISKYLPRAVANGKDIEAREQMAFAQSLAGMAFNNAGLGYVHAIAHQLGGFYNFPHGVCNAVLLPYVCRFNLISKVERYAEIAAFLGENVDGLSTYDAAEKAIKAIERMAKDLNIPKGFKELGAKEEDIETLAKNAMKDACALTNPRKPKLEEVIQIIKNAM
modifications: Bacillus methanolicus MGA3
B2: Mdh3-MGA3: NAD-dependent methanol dehydrogenase encoded by chromosomal gene mdh3 of B. methanolicus MGA3, SEQ ID NO. 4 (protein)
chain: MKNTQSAFYMPSVNLFGAGSVNEVGTRLAGLGVKKALLVTDAGLHSLGLSEKIAGIIREAGVEVAIFPKAEPNPTDKNVAEGLEAYNAENCDSIVTLGGGSSHDAGKAIALVAANGGTIHDYEGVDVSKKPMVPLIAINTTAGTGSELTKFTIITDTERKVKMAIVDKHVTPTLSINDPELMVGMPPSLTAATGLDALTHAIEAYVSTGATPITDALAIQAIKIISKYLPRAVANGKDIEAREQMAFAQSLAGMAFNNAGLGYVHAIAHQLGGFYNFPHGVCNAILLPHVCRFNLISKVERYAEIAAFLGENVDGLSTYEAAEKAIKAIERMARDLNIPKGFKELGAKEEDIETLAKNAMNDACALTNPRKPKLEEVIQIIKNAM
modifications: Bacillus methanolicus MGA3
B3: Mdh-MGA3: previously reported plasmid pBM19-encoded NAD-dependent methanol dehydrogenase of B. methanolicus MGA3, SEQ ID NO. 8 (protein)
chain: MTTNFFIPPASVIGRGAVKEVGTRLKQIGAKKALIVTDAFLHSTGLSEEVAKNIREAGVDVAIFPKAQPDPADTQVHEGVDVFKQENCDSLVSIGGGSSHDTAKAIGLVAANGGRINDYQGVNSVEKPVVPVVAITTTAGTGSETTSLAVITDSARKVKMPVIDEKITPTVAIVDPELMVKKPAGLTIATGMDALSHAIEAYVAKGATPVTDAFAIQAMKLINEYLPKAVANGEDIEAREKMAYAQYMAGVAFNNGGLGLVHSISHQVGGVYKLQHGICNSVNMPHVCAFNLIAKTERFAHIAELLGENVAGLSTAAAAERAIVALERINKSFGIPSGYAEMGVKEEDIELLAKNAYEDVCTQSNPRVPTVQDIAQIIKNAM
modifications: Bacillus methanolicus MGA3

Legend:
Type in all cases: biochemical
[1] = In vitro Mdh activity in crude cell extracts of recombinant E. coli; conditions: for In vitro activity: expressed in E. coli, crude cell extract; for ranking of Mdh activity on expression in E. coli: in vitro and in vivo
From the text: The genes coding for Mdh and the Mdh activator protein Act were amplified from pET21a-plasmids harboring genes from B. methanolicus strains MGA3 (mdh-MGA3, mdh2-MGA3, mdh3-MGA3 and act-MGA3) and PB1 (mdh-PB1, mdh1-PB1 and mdh2-PB1). The genes were then cloned either into the pSEVA424 plasmid (mdh genes) or in the pSEVA131 plasmid (act gene). For cloning of mdh-MGA3, mdh-PB1, mdh1-PB1 and act-MGA3, EcoRI and HindIII restrictions sites were used, while mdh2-MGA3, mdh2-PB1 and mdh3-MGA3 were cloned by using EcoRI and PstI restriction sites. The resulting expression vectors were transformed into electrocompetent wt E. coli K-12 (BW25113) and into E. coli K-12 (BW25113) with a deleted frmA gene.
Expression Experiments For expression experiments, the cells were cultivated in either Luria-Bertani (LB) medium for in vitro assays or in M9 medium for in vivo assays both containing 20 μg/ml streptomycin for pSEVA424. When Act was co-expressed the medium was supplemented with 100 μg/ml ampicillin. Expression was induced when cells reached OD 0.5 (for in vitro tests) or OD 1 (for in vivo tests) by adding 0.1 mM IPTG (final concentration) for 6 hours. Cells were then harvested by centrifugation. For in vitro assays, crude cell extract was prepared by lysing the cells in a French press following ultracentrifugation. Alternatively, cells were resuspended in M9-medium without glucose for in vivo activity measurements. Enzyme Assays
In vitro measurements of Mdh activity: For determination of Mdh activity in crude cell extracts, the Mdh dependent formation of NADH was monitored at 340 nm. The assays were performed either at 37° C. or 45° C. in prewarmed buffer solutions. The Mdh assay contained 10-20 μg enzyme, 50 mM K2HPO4-buffer, pH7.4, 2.5 mM MgCl and 0.5 mM of NAD^+ (final concentrations). After 5 min of preincubation, the reaction was started with 1 M of methanol (final concentration).

[2] = Methanol dehydrogenase assay of purified recombinant MDH proteins (NADH production at 340 nm); conditions: for Vmax, variable substrate Methanol + Act / Vmax, variable substrate Methanol / Km: 45° C., pH 9.5; for Vmax, variable substrate Methanol: absence of Act
Description: Alcohol dehydrogenase activities were measured spectrophotometrically essentially as described previously (Hektor, Kloosterman et al. (2002) Chem 277(49): 46966-46973) and the reaction mixture contained: 100 mM Glycine-KOH pH 9.5 (unless otherwise stated), 5 mM MgSO4, 0.5 mM NAD^+ and 500 mM alcohol (methanol, ethanol, propanol, 1,3-propanediol, or butanol). NAD^+ was substituted with equal concentrations of NADP^+, FMN^+, and FAD^+, when indicated. The reaction mixture for measurements of formaldehyde reductase activity contained: 50 mM Potassium-phosphate buffer pH=6.7, 0.15 mM NADH, 1 mM DTT and 11.6 mM (0.1-116 mM) formaldehyde. The assay components were mixed in the cuvette and pre-warmed to 45° C., unless otherwise stated. The reactions were started by addition of 5-40 μg of the purified MDH proteins, and the production of NADH was monitored at 340 nm for 4 minutes. One unit of MDH activity was defined as the amount of enzyme needed to produce 1 μmol NADH per minute under the conditions described above. Purified Act (0.1-40 μg) or NudF (20 μg) proteins were added to the reaction mixtures as indicated in the text.
The purified MDH and Act proteins (20 μg) were used in the kinetic experiments performing the methanol dehydrogenase and the formaldehyde dehydrogenase assays essentially as described above. […] For determination of the Km for NAD^+ (Km,NAD+) and Vmax, the methanol concentration was kept constant at a saturating level (500 mM), while the concentration of NAD^+ was varied (5-1000 μM). […] Act (20 μg) was added to the reaction mixtures for determination of Kμ,MεOH and Vmax values in the presence of this activator, as indicated in the text. In general, the slopes of activity versus time were linear in the measured period (data not shown). Km and Vmax values were calculated by using nonlinear regression with the Microsoft Excel solver-tool to fit the measured data to the Michaelis-Menten equation, as described previously (Jakobsen et al., (2009) Appl Environ Microbiol 75(3): 652-661). The values obtained from the regression were then compared to the values obtained from Lineweaver-Burk and Hanes-Woolf plots to ensure that the global minimum, not a local minimum, had been found.

[3] = Heat stability: pre-incubation of purified MDHs at 45° C. or 60° C. prior to the enzyme assay; conditions: preincubation at 60° C.; compared to the remaining MDHs
Description: FIG. 5. (A) Temperature stability of MGA3 Mdh, Mdh2 and Mdh3 was tested in vitro. Enzymes were incubated at 45° C. or at 60° C. prior to the enzyme assay. (B) Temperature stability of PB1 Mdh, Mdh1 and Mdh2 was tested in vitro. Enzymes were incubated at 45° C. or at 60° C. prior to the enzyme assay.
The heat stability of the six MDHs was tested by pre-incubation of the proteins at 45° C. and 60° C. and samples were taken at different time points for enzyme assays. As expected, all enzymes retained essentially all catalytic activity upon preincubations at 45° C. (FIG. 5). […] A selection of the experiments was repeated in the presence of equal amounts of purified Act, and this had no effect on temperature stability for any of the MDHs (data not shown).

[4] = methanol 500 mM, read-out: Km, variable substrate NAD+

Molecule	In vitro activity ([1]; 37° C., +Act) [mU/mg]	In vitro activity ([1]; 37° C., −Act) [mU/mg]	In vitro activity ([1]; 45° C., +Act) [mU/mg]	In vitro activity ([1]; 45° C., −Act) [mU/mg]	ranking of Mdh activity on expression in E. coli [1]	ranking of Mdh activity on expression in E. coli ([1]; listed as MGA3-Mdh2)	Vmax, variable substrate Methanol + Act ([2]; 20 μg MDH + 20 μg Act) [U/mg]	Vmax, variable substrate Methanol [2] [U/mg]	Km [2, 4] [µM]	change of Km,MeOH in the presence of Act (in words) ([2]; Act added vs. no Act)	temperature stability in vitro (in words) [3]	Km ([2]; 20 μg MDH + 20 μg Act, read-out: Km, variable substrate Methanol + Act) [µM]	reduction of Km,MeOH in the presence of Act ([2]; Act added vs. no Act) [fold]
B1	672	59	1910	310	gave the best results	overall highest activities both in vitro and in vivo	0.15	0.04	22	remained essentially the same			
B2	327	21	867	113			0.45	0.09	40	remained essentially the same	Higher Temperature Stabilities; also recorded: improved thermostability		
B3	464	48	1260	251			0.5	0.08	14		only moderate negative effects	12000	17
